These results are taken from PMC9453709.

This assay concerns the target SARS-CoV-2 Omicron BA.1 S glycoprotein ectodomain with S6P and GSAS mutations (SARS-CoV-2). Put plainly: cryo-EM structure.

The stoichiometry N is the number of molecules, sites or subunits per partner or assembly. Regarding “SARS-CoV-2 Omicron BA.1 S glycoprotein ectodomain with S6P and GSAS mutations (domain or fragment)”, the stoichiometry N came out at 3.
